Consider one molecule from patent US20260139001A1 (Harvard, published 2026).

The assay deals with RBD (Severe acute respiratory syndrome …, UniProt P59594).

B1: Wuhan-NS (VHH72 NoK V104K conjugated with NBD-x; V104NBDxK) (VHH)
VHH: QVQLQESGGGLVQAGGSLRLSCAASGRTFSEYAMGWFRQAPGREREFVATISWSGGSTYYTDSVRGRFTISRDNARNTVYLQMNSLRPDDTAVYYCAAAGLGTKVSEWDYDYDYWGQGTQVTVSS
Molecule B1 had an EC50 of 0.123 µM.
